According to patent US11066655B2, “RNA polymerase, methods of purification and methods of use” (President and Fellows of Harvard College, priority 2013, dated 2021):

B1: Syn5 RNAP: single subunit DNA-dependent RNA polymerase from marine cyanophage Syn5, amino acid sequence SEQ ID NO:23 (protein)
chain: MSFDLIARQLQRETEAAELARKRLQDARREANERSYASSNIESRKAIATFLDPIAQRIGERLFTLRRGTGAVDAAEVYKHLKNADHHHLALITMKTALDVLGKDPEPQIQQLTTAIGRNIQLELRLTYYAEENPELYKQASRFFHAGTGTRQKATVIKLKFNREGIEWDQWSRVTCHKVGQWLMLAMADVTGWIERATDRTSGGRKTKTRICYSREFLQHRDTILAAAEQLAFCQWPMLCPPIEWSNDHNGGYLSEQIRRVNPLIRKTGPLGTRKQGDIPLAMLNNLQGQAYKVNPEVLDIANHCYESNVTVGKFIRHAPLPVPPSPGEDCTEDQLTAYKRARREAEDFNAQISQKNWRTTEVMYVARKYADEASFWMPASFDYRGRVYFLNTALNPQGTDFDKALLYFAEEGPVNEWWLSFHVATTYGLDKETMVNRVQWARDNHELIDRIASDPVRHTEWHDADEPWCFLAACLEYKACVIDGTKQTSGLPIGIDATCSGLQHLAAMTRCGRTAALVNVTPTDKPADAYKTVAQASLKHLPKEQHEWITRKVTKRPVMCTPYGVTMSSARGYIRDQLVKDGHKEDLRSPGVLNGIVKAIFNEAIPEVIPGPVQVMAWLKRSAGQIIDRGDSTITWTTPSGFEVVQDLKKSKTYEVKTRIMGGARIKLQVGDGFTDEPDRDHHKSALAPNVVHSNDASLLHLTFAFWDKPFTVIHDCVLGRSCDMDQMGSDIRLHFAEMYKADVMQDWADQVGVELPVDLIKNTLDIDSVNQSLYFFS
modifications: Amino acid sequence of a cyanophage Syn5 RNAP

Experiments:
T7 promoter = assay: Cross recognition of promoters, gel transcription assay; type: biochemical, bacteriophage T7; details: T7 DNA fragment with T7 Φ1.1 B promoter
Description: FIGS. 3A-3C depict characterization of the Syn5 promoter. A) Determination of the 3′-end of Syn5 promoter. 3′-dATP, 3′-dGTP, 3′-dUTP replaced ATP, GTP and UTP, respectively, as chain terminator to sequence the 5′-end of Syn5 RNAP transcript on a template same as template 1 in FIG. 2B. Once the 5′-terminus of the transcript was determined, the sequence preceding it should be the promoter and the 3′-end of the promoter can thus be defined. A 25% TBE-urea gel was used for this assay. B) Cross recognition between Syn5 and T7 transcription systems. Syn5 RNAP synthesizes runoff products on a fragment of T7 DNA provided the T7 promoter is replaced by a Syn5 promoter (lane a). Syn5 RNAP fails to produce transcripts if the first nucleotide downstream of the promoter is changed from G to T (lane b). […]
For the gel assay results shown in FIGS. 1, 2, 3, and 13, reaction mixtures (20 μl) contained 40 mM Tris-HCl (pH 7.9), 6 mM MgCl2, 2 mM spermidine, 10 mM DTT, 200 µM[…]P, GTP and UTP, 10 µM [[…]-^32P]CTP, 1.5 U/µl RNaseOUT™ recombinant ribonuclease inhibitor (Invitrogen), 100 nM Syn5 or T7 RNAP, and DNA templates as described in the figure legends (either 2 nM phage genomic DNA, 4 nM purified PCR products, or 1 µM synthetic dsDNA fragments). […] After electrophoresis, gels were dried and analyzed using a Fuji BAS 1000 Bioimaging Analyzer.

[1] = system: linearized pET24-Syn5RNAP; assay: Long run-off RNA synthesis and incorporation of modified nucleotides (yield by A260); type: biochemical
Description: FIGS. 12A-12B depict synthesis of long run-off product and the incorporation of modified nucleotides by Syn5 and T7 RNA polymerase. A) On the linearized plasmid template as shown in the schematic, the production of RNA by either RNA polymerase (10 nM) was analyzed on agarose gel as lane 2. […] Lane 3 and 4 show the same RNA synthesis when CTP was replaced by 5mCTP and UTP by Ps-UTP, respectively. B) Incorporation of UTP or Ps-UTP into small RNA by 22, 67, and 200 nM Syn5 and T7 RNA polymerase as analyzed by denaturing TBE polyacrylamide gel. Full-length run-off product and the N+1 product are shown.
The plasmid pET24 harboring the Syn5 RNAP gene (pET24-S5RNAP) that contains a single Syn5 promoter in the RNAP gene and a single T7 promoter preceding the gene was used for filter binding assay as shown in FIG. 8. pET24-S5RNAP was also linearized by EcoRI treatment and recovered by gel extraction to serve as template for FIG. 12A.
For the results shown in FIG. 12A, reaction mixtures (10 μl) contained 40 mM Tris-HCl pH 8.0, 6 mM MgCl2, 2 mM spermidine, 10 mM DTT, 600 µM[…]P, GTP, CTP (or 5Me-CTP), and UTP (or Pseudo-UTP), 1.5 U/µl RNaseOUT™ recombinant ribonuclease inhibitor, 0.04 U/µl yeast inorganic pyrophosphatase, 10 nM linearized (NotI treated) pET24-Syn5RNAP, 0 or 160 mM KCl, and 10 nM Syn5 or T7 RNAP. Syn5 reaction was carried out at RT and T7 at 37° C. RNA products were then purified with RNA Clean & Concentrator™-5 kit into a final solution of 10 µl and 5 µl each was mixed with 5 µl denaturing RNA loading dye. Samples were then heated at 65° C. for 5 min and loaded onto 1.6% TAE agarose gel. RNA products were visualized by ethidium bromide staining. For FIG. 12B, reaction mixtures (10 μl) containing 40 mM Tris-HCl pH 8.0, 6 mM MgCl2, 2 mM spermidine, 10 mM DTT, 200 µM[…]P, GTP and UTP (or Pseudo-UTP), 10 µM [[…]-^32P]CTP, 1.5 U/µl RNaseOUT™ recombinant ribonuclease inhibitor, 0.5 μM DNA templates S5P-tDNAR or T7P-tDNAR, and various amount of Syn5 or T7 RNAP were incubated at RT (for Syn5 RNAP) or 37° C. (for T7 RNAP) for 30 min before adding of one unit of DNase I to each reaction mixture and an additional incubation of 15 min at 37° C. Reactions were then terminated by the addition of 4 µl of loading dye containing 95% formamide and 40 mM EDTA. Samples were then heated at 90° C. for 1 min and 4 µl sample each was loaded onto 6% TBE-Urea denaturing polyacrylamide gel. After electrophoresis, gels were dried and analyzed using a Fuji BAS 1000 Bioimaging Analyzer.

[2] = CTP and UTP present, 1500 nt run-off transcript, optimal temperature of each RNAP

Row | Molecule | transcription from a T7 promoter (T7 promoter) | yield of RNA ([1]; 160 mM KCl) | yield of RNA, based on A260 [1, 2] | yield of RNA, based on A260 ([1]; CTP replaced by 5mCTP) | yield of RNA, based on A260 ([1]; UTP replaced by Ps-UTP) | yield relative to that in the absence of salt ([1]; 160 mM KCl)
1 | T7 RNAP: RNA polymerase encoded by bacteriophage T7, from New England Biolabs [reference compound] | initiates transcription and produces a runoff transcript | completely inhibited | 0.64 µg | 0.75 µg | 0.59 µg | –
2 | B1 | does not recognize a T7 promoter | 0.31 µg | 0.69 µg | 0.76 µg | 0.63 µg | about 50%
